From patent US6610541B2, “Recombinant, active caspases and uses thereof” (Thomas Jefferson University, priority 1998, dated 2003)

How the values were obtained:
rev-caspase-6 [1] = molecular target: T1, rev-caspase-6 (Homo sapiens, UniProt P55212); assay: Inhibition of rev-caspase-6 induced apoptosis in transfected MCF-7 cells; type: cell-based; parameters: T7-tag (15 residues) (N); made in house; details: co-transfection with 4-fold expression construct
T1 sequence (P55212 with tags, fused parts or gaps): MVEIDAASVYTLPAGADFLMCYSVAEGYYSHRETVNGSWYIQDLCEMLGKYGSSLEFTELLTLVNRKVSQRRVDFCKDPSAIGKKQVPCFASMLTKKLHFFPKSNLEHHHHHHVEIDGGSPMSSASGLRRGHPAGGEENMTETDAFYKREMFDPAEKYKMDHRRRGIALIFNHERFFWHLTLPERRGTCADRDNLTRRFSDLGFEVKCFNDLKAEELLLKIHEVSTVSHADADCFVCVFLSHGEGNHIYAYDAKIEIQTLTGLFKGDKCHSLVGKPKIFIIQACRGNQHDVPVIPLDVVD
Method: (§1) FIGS. 4A and B are bar diagrams representing the ability of rev-caspase-3 and -6 to induce apoptosis in MCF-7 cells. MCF-7 cells were transiently transfected with either rev-caspase-3 (FIG. 4A), or rev-caspase-6 (FIG. 4B) expression constructs in combination with 4-fold of CrmA, p35 or Bcl-2 expression constructs, or 20 μM zVAD-fmk. Cells transfected with an empty vector or the wild-type caspase-3 or -6 were used as controls.
(§2) To express the rev-caspases in mammalian cells and assay their apoptotic activity, they were amplified with the T7-tag primer and the LS-reverse primers using the pET28a constructs as templates, and subcloned into the mammalian double expression vector pRSC-LacZ (MacFarlane et al., J. Biol. Chem., 272: 25417-25420, 1997; Tsang et al., Bio/Technology, 22: 68, 1997). This vector allows the expression of lacZ under the Rous Sarcoma virus promoter, and the test cDNA under the CMV promoter. To assay for apoptosis, MCF-7 or 293 cells were transfected, using the method commercially available as the Lipofect Amine method (Life Technologies, Inc.), with the pRSC-LacZ constructs in the presence or absence of different apoptosis-inhibitors. 30 h after transfection cells were stained with β-galactosidase and examined for morphological signs of apoptosis. […]

rev-caspase-3 [2] = molecular target: T2, rev-caspase-3 (Homo sapiens, UniProt P42574); assay: Inhibition of rev-caspase-3 induced apoptosis in transfected MCF-7 cells; type: cell-based; parameters: T7-tag (15 residues) (N); made in house; details: co-transfection with 4-fold expression construct
T2 sequence (P42574 with tags, fused parts or gaps): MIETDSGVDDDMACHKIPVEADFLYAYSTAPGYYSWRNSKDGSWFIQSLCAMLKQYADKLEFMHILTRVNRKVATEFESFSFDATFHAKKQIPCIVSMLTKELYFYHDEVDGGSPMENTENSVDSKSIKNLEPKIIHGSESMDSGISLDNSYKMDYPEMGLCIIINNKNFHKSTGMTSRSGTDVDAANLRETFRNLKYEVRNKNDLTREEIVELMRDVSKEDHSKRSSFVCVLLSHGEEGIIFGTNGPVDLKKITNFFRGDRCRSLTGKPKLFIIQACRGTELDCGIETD
Method: as §1, §2

caspase-6 = molecular target: T3, caspase-6 (Homo sapiens, UniProt P55212); details: earlier observations, J. Biol. Chem. 271:27099; cited from earlier work
T3 sequence (P55212 24-293): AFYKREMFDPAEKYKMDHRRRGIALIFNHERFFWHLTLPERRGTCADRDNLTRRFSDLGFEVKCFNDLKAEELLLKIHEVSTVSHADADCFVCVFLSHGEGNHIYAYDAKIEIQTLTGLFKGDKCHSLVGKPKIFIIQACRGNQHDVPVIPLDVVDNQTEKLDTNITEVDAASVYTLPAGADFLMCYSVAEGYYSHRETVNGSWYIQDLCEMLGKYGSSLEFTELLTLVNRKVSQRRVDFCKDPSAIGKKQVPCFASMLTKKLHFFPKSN

[3] = molecular target: T4, uncleavable rev-caspase-3 (Homo sapiens, UniProt P42574, D28A/D9A); assay: In vitro translation of uncleavable rev-caspase-3: His6-T7-tag processing; type: biochemical; details: 400 nM DEVD-CHO during in vitro translation
T4 construct: uncleavable rev-caspase-3 (B); made in house; host or cells: in vitro translation in rabbit reticulocyte lysate (TNT Kit, Promega)
T4 sequence (P42574 with tags, fused parts or gaps D9A/D28A): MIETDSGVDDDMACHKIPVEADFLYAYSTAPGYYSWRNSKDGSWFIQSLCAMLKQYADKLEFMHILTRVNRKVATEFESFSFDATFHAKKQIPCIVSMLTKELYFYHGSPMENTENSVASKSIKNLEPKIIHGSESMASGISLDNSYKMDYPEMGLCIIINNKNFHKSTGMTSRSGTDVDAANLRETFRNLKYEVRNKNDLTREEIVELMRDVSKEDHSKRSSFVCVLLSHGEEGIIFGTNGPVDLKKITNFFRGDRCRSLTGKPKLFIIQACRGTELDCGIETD
Excerpt: FIG. 5A is a scanned image of an autoradiogram representing SDS-PAGE analysis of the enzymatic activity of uncleavable rev-caspase-3. Uncleavable rev-caspase-3 was in vitro translated in the absence or the presence of increasing concentrations of DEVD-CHO (SEQ ID NO:52),. The translation product contains a cleavable 35 residues-long His6-T7-tag at its N-terminus. The active site mutant rev-caspase-3 (Rev C/A) was used as a control. The p32 cleavage product without the His6-T7-tag is indicated to the right.
^35S-labeled caspases (wild-type and rev-caspases) were obtained by in vitro translation in the presence of ^35S-methionine using a coupled transcription/translation system in rabbit reticulocyte lysate using TNT Kit (Promega) according to the manufacturer's recommendations. […] Because the in vitro translated products are present at very low concentration in the reaction mixture, the observed cleavage must be attributed to an intramolecular processing within the caspase heterotetramer.
However, to follow the activity of this molecule a cleavable 35 residue long His6-T7-tag N-terminal to the IETD (SEQ ID NO:53) site was introduced (see FIG. 1B). […] Nevertheless, the translated molecule was active as evident from its ability to cleave its T7-tag to form the p32 species (FIG. 5). In the presence of 400 nM DEVD-CHO (SEQ ID NO:52), processing of the T7-tag was inhibited and only the full length p34 species can be seen. […] Thus by mimicking the mature caspase structure, it is possible to design a contiguous active caspase molecules.

rev-caspase-6 [4] = molecular target: T1, rev-caspase-6; assay: Autocatalytic processing of in vitro translated rev-caspase-6 (SDS-PAGE/autoradiography); type: biochemical; parameters: T7-tag (15 residues) (N); made in house; host or cells: in vitro translation in rabbit reticulocyte lysate (TNT Kit, Promega)
Method: (§3) FIGS. 2B and C are scanned images of autoradiograms representing SDS-PAGE analysis of the autoprocessing of rev-caspase-3 and -6, respectively in the presence of varying levels of selected caspase inhibitors. Rev-caspase-3 (FIG. 2B) or rev-caspase-6 (FIG. 2C) were in vitro translated in the presence of increasing concentrations of DEVD-CHO […]; (SEQ ID NO:52), or zVAD-fmk (0-5 μM). The translation products were then analyzed as in FIG. 2A. WT, wild-type.
(§4) ^35S-labeled caspases (wild-type and rev-caspases) were obtained by in vitro translation in the presence of ^35S-methionine using a coupled transcription/translation system in rabbit reticulocyte lysate using TNT Kit (Promega) according to the manufacturer's recommendations.
(§5) To test the effect of selected caspase inhibitors on the autocatalytic activity of rev-caspase-3 and 6, the rev-caspases were translated as in Example 3, but in the presence of varying amounts of inhibitors.

rev-caspase-3 [5] = molecular target: T2, rev-caspase-3; assay: Autocatalytic processing of in vitro translated rev-caspase-3 (SDS-PAGE/autoradiography); type: biochemical; parameters: T7-tag (15 residues) (N); made in house; host or cells: in vitro translation in rabbit reticulocyte lysate (TNT Kit, Promega)
Method: as §3, §4, §5

MCF-7 cells = assay: Induction of apoptosis in transfected MCF-7 cells (round blue apoptotic cells); type: cell-based, human; details: 30 h after transfection
Method: as §1
To express the rev-caspases in mammalian cells and assay their apoptotic activity, they were amplified with the T7-tag primer and the LS-reverse primers using the pET28a constructs as templates, and subcloned into the mammalian double expression vector pRSC-LacZ (MacFarlane et al., J. Biol. Chem., 272: 25417-25420, 1997; Tsang et al., Bio/Technology, 22: 68, 1997). This vector allows the expression of lacZ under the Rous Sarcoma virus promoter, and the test cDNA under the CMV promoter. To assay for apoptosis, MCF-7 or 293 cells were transfected, using the method commercially available as the Lipofect Amine method (Life Technologies, Inc.), with the pRSC-LacZ constructs in the presence or absence of different apoptosis-inhibitors. 30 h after transfection cells were stained with β-galactosidase and examined for morphological signs of apoptosis. The percentage of round blue apoptotic cells (mean±SD) were represented as a function of total blue cells under each condition (n≧3).
To determine the apoptotic activity of rev-caspase-3 and 6 in vivo, the rev-caspases were expressed in human MCF-7 cells, transfected as explained above in Example 2.

lamin A = assay: Cleavage of in vitro translated lamin A C-terminus by bacterially expressed caspases; type: biochemical; details: BL-21 bacterial extracts, 2 h at 37° C.
Method: FIGS. 3A and B are scanned images representing the SDS-PAGE analysis of the ability of rev-caspase-3 (imaged by western blot) and -6 (imaged by autoradiogram) to cleave PARP and lamin, respectively. In FIG. 3A purified human PARP was incubated with buffer (lane 1) or BL-21 bacterial extracts prepared from bacteria transformed with caspase-3 (lane 2), rev-caspase-3 (lane 3), caspase-6 (lane 4), rev-caspase-6 (lane 5) constructs or empty pET28a vector (lane 6) for 2 h at 37° C. The reaction products were then analyzed by SDS-PAGE and Western blotting with anti-human PARP antibody. In FIG. 3B a cDNA encoding the C-terminus of lamin A (amino acids) which contain the caspase-6 cleavage site (VEIDA); (SEQ ID NO:116), was amplified by PCR and in vitro translated in the presence of ^35S-methionine. The labeled product was incubated with buffer (lane 1) or the BL-21 bacterial extracts listed above for 2 h at 37° C., and then analyzed by SDS-PAGE and autoradiography. The cleavage products are indicated to the right.
At limited caspase concentrations, poly(ADP) ribose polymerase (PARP) is specifically cleaved by caspase-3 and 7 but not other caspases. Similarly, lamin is specifically cleaved by caspase-6 but not other caspases. […]

[6] = at the concentration used (zVAD-fmk 0-5 μM), p35 data not shown

Bc1-2: overexpressed protein that protects against different forms of apoptosis [reference compound]
effect of overexpression on apoptotic activity of rev-caspase-6 (rev-caspase-6 [1]): did not significantly reduce
effect of overexpression on apoptotic activity of rev-caspase-3 (rev-caspase-3 [2]): did not significantly reduce

DEVD-CHO [reference compound]
inhibition of caspase-6 (caspase-6): poorly inhibited
processing of the T7-tag of uncleavable rev-caspase-3 [3]: inhibited
effect on the autocatalytic activity of rev-caspase-6 (rev-caspase-6 [4]; same concentrations (40-400 nM), inhibitor present during in vitro translation): little effect
inhibition of the autocatalytic activity of rev-caspase-3 (rev-caspase-3 [5]; at 40-400 nM concentration, inhibitor present during in vitro translation): 50-90%

B1: baculovirus p35: baculovirus p35, which inhibits the activity of most caspases (protein)
chain: MCVIFPVEIDVSQTIIRDCQVDKQTRELVYINKIMNTQLTKPVLMMFNISGPIRSVTRKNNNLRDRIKSKVDEQFDQLERDYSDQMDGFHDSIKYFKDEHYSVSCQNGSVLKSKFAKILKSHDYTDKKSIEAYEKYCLPKLVDERNDYYVAVCVLKPGFENGSNQVLSFEYNPIGNKVIVPFAHEINDTGLYEYDVVAYVDSVQFDGEQFEEFVQSLILPSSFKNSEKVLYYNEASKNKSMIYKALEFTTESSWGKSEKYNWKIFCNGFIYDKKSKVLYVKLHNVTSALNKNVILNTIK
inhibitory effect on rev-caspase-6 autocatalytic activity compared with rev-caspase-3 (rev-caspase-6 [4]; [6]): nearly an equal inhibitory effect
effect of overexpression on apoptotic activity of rev-caspase-6 (rev-caspase-6 [1]): partially protected
inhibitory effect on rev-caspase-3 autocatalytic activity compared with rev-caspase-6 (rev-caspase-3 [5]; [6]): nearly an equal inhibitory effect
effect of overexpression on apoptotic activity of rev-caspase-3 (rev-caspase-3 [2]): partially protected

B2: rev-caspase-6: contiguous caspase-6 with small subunit fused N-terminal to large subunit, VEID cleavage site between them (SEQ ID NO:36) (protein)
chain: MVEIDAASVYTLPAGADFLMCYSVAEGYYSHRETVNGSWYIQDLCEMLGKYGSSLEFTELLTLVNRKVSQRRVDFCKDPSAIGKKQVPCFASMLTKKLHFFPKSNLEHHHHHHVEIDGGSPMSSASGLRRGHPAGGEENMTETDAFYKREMFDPAEKYKMDHRRRGIALIFNHERFFWHLTLPERRGTCADRDNLTRRFSDLGFEVKCFNDLKAEELLLKIHEVSTVSHADADCFVCVFLSHGEGNHIYAYDAKIEIQTLTGLFKGDKCHSLVGKPKIFIIQACRGNQHDVPVIPLDVVD
modifications: OTHER INFORMATION: Rev-Caspase-6 contructed fro m human caspase-6
apoptosis in transfected cells (MCF-7 cells): ~90%
autocatalytic processing in the in vitro translation reaction (rev-caspase-6 constructs) (rev-caspase-6 [4]; rabbit reticulocyte lysate, 35S-methionine): able to undergo autocatalytic processing
cleavage of lamin (lamin A): efficiently cleaved lamin
